Measured values taken from article PMC6082870.

B1: lysyl hydroxylase 3 (LH3/PLOD3): T672N (protein)
parent chain: MTSSGPGPRFLLLLPLLLPPAASASDRPRGRDPVNPEKLLVITVATAETEGYLRFLRSAEFFNYTVRTLGLGEEWRGGDVARTVGGGQKVRWLKKEMEKYADREDMIIMFVDSYDVILAGSPTELLKKFVQSGSRLLFSAESFCWPEWGLAEQYPEVGTGKRFLNSGGFIGFATTIHQIVRQWKYKDDDDDQLFYTRLYLDPGLREKLSLNLDHKSRIFQNLNGALDEVVLKFDRNRVRIRNVAYDTLPIVVHGNGPTKLQLNYLGNYVPNGWTPEGGCGFCNQDRRTLPGGQPPPRVFLAVFVEQPTPFLPRFLQRLLLLDYPPDRVTLFLHNNEVFHEPHIADSWPQLQDHFSAVKLVGPEEALSPGEARDMAMDLCRQDPECEFYFSLDADAVLTNLQTLRILIEENRKVIAPMLSRHGKLWSNFWGALSPDEYYARSEDYVELVQRKRVGVWNVPYISQAYVIRGDTLRMELPQRDVFSGSDTDPDMAFCKSFRDKGIFLHLSNQHEFGRLLATSRYDTEHLHPDLWQIFDNPVDWKEQYIHENYSRALEGEGIVEQPCPDVYWFPLLSEQMCDELVAEMEHYGQWSGGRHEDSRLAGGYENVPTVDIHMKQVGYEDQWLQLLRTYVGPMTESLFPGYHTKARAVMNFVVRYRPDEQPSLRPHHDSSTFTLNVALNHKGLDYEGGGCRFLRYDCVISSPRKGWALLHPGRLTHYHEGLPTTWGTRYIMVSFVDP
B2: lysyl hydroxylase 3 (LH3/PLOD3): R714N (protein)
parent chain: B1 parent chain
B3: lysyl hydroxylase 3 (LH3/PLOD3): W148N-L150T (protein)
parent chain: B1 parent chain

Key:
[1] = analytical size exclusion chromatography; conditions: glycan gained; control: wild type
[2] = lysyl hydroxylase activity, Succinate-Glo luminescence; conditions: glycan gained; control: wild type

| Protein | oligomerisation [1] | enzymatic_activity [2] |
| --- | --- | --- |
| B1 | decreases |  |
| B2 | decreases |  |
| B3 | no change | no change |
